{"source": "paper PMC9757077", "about": "“The B. subtilis Rok protein is an atypical H-NS-like protein irresponsive to physico-chemical cues”", "key": {"[1]": {"biological_target": "T1, Rok (Bacillus subtilis 168, UniProt O34857 1-191)", "T1 sequence": "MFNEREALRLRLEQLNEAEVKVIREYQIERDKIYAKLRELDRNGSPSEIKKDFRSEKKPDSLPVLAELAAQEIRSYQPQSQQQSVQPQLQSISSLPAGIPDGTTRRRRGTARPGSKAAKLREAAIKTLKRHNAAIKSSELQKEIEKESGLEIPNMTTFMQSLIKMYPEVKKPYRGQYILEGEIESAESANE", "experiment": "TPM", "conditions": "Hill n=6.5 ± 0.4; 50 mM KCl; MST: 10 mM Tris-HCl pH 8, 150 mM KCl, 5% glycerol, 0.05% Tween20, 0.08 mg/ml acetylated BSA, RT, 40 nM DNA; TPM: 50 mM KCl; bridging: 50 mM KCl …"}, "[2]": {"tested_on": "Rok Δ75-96 (Bacillus subtilis 168)", "experiment": "TPM", "conditions": "Hill n=5.7 ± 0.9; 50 mM KCl; MST: 10 mM Tris-HCl pH 8, 150 mM KCl, 5% glycerol, 0.05% Tween20, 0.08 mg/ml acetylated BSA, RT, 40 nM DNA; TPM: 50 mM KCl; bridging: 50 mM KCl …"}, "[3]": {"biological_target": "Rok with a C-terminal His-tag (Rok-6xHis) (B. subtilis 168) (UniProt O34857)"}, "[4]": {"biological_target": "T1, Rok", "experiment": "bridging pull-down; 0.27 uM Rok, bait N1; minimal bridged length; MST: 10 mM Tris-HCl pH 8, 150 mM KCl, 5% glycerol, 0.05% Tween20, 0.08 mg/ml acetylated BSA, RT, 40 nM DNA; TPM: 50 mM KCl; bridging: 50 mM KCl, 25 C", "conditions": "protein: recombinant; chain copies: 2; label: 32P; blunt"}, "[5]": {"biological_target": "T1, Rok", "experiment": "MST; no MgCl2; McGhee-von Hippel n=30 bp; MST: 10 mM Tris-HCl pH 8, 150 mM KCl, 5% glycerol, 0.05% Tween20, 0.08 mg/ml acetylated BSA, RT, 40 nM DNA; TPM: 50 mM KCl; bridging: 50 mM KCl, 25 C", "conditions": "protein: recombinant; chain copies: 2; label: 5'-Cy5 top strand; blunt"}, "[6]": {"biological_target": "T1, Rok", "experiment": "MST; 10 mM MgCl2; MST: 10 mM Tris-HCl pH 8, 150 mM KCl, 5% glycerol, 0.05% Tween20, 0.08 mg/ml acetylated BSA, RT, 40 nM DNA; TPM: 50 mM KCl; bridging: 50 mM KCl, 25 C", "conditions": "protein: recombinant; chain copies: 2; label: 5'-Cy5 top strand; blunt"}, "[7]": {"biological_target": "T1, Rok", "experiment": "MST; up to 35 mM MgCl2; MST: 10 mM Tris-HCl pH 8, 150 mM KCl, 5% glycerol, 0.05% Tween20, 0.08 mg/ml acetylated BSA, RT, 40 nM DNA; TPM: 50 mM KCl; bridging: 50 mM KCl, 25 C", "conditions": "protein: recombinant; chain copies: 2; label: 5'-Cy5 top strand; blunt"}}}
{"molecule": "685 bp AT-rich (32% GC) DNA", "values": [{"measurement": "K half", "setting": "[1]", "result": 6.1, "unit": "nM"}, {"measurement": "K half", "setting": "[2]", "result": 8.8, "unit": "nM"}]}
{"molecule": "small Rok (sRok) (natural protein)", "values": [{"measurement": "DNA recovery (%) in the DNA bridging assay with different Rok:sRok ratios (total protein 0.5 uM, 50 mM KCl + 1 mM MgCl2, 25°C); value at 20% sRok; Rok here is the untagged protein", "setting": "[3]", "result": 40, "unit": "%"}]}
{"molecule": "100 bp prey (dsDNA) DNA 1: GATATATGGACTCTTAGTGGCAAATATATAATGTATAAGTTCTGGAGTAGTATGGTAATAACTATTTTATTTTCGATAGCTTGAATGTTTATTTTCCCAG DNA 2: CTGGGAAAATAAACATTCAAGCTATCGAAAATAAAATAGTTATTACCATACTACTCCAGAACTTATACATTATATATTTGCCACTAAGAGTCCATATATC", "values": [{"measurement": "binding result", "setting": "[4]", "result": "binds"}]}
{"molecule": "MST aspecific 78 bp (dsDNA) DNA 1: CGGCGCAAATTCGTGACCAGTTGCATCAGCTGCGTGAGCTGTTTATCGCAGCATCGTAACAGGATAGTGAAGAAGACT DNA 2: AGTCTTCTTCACTATCCTGTTACGATGCTGCGATAAACAGCTCACGCAGCTGATGCAACTGGTCACGAATTTGCGCCG", "values": [{"measurement": "Kd", "setting": "[5]", "result": "79.4 ± 20", "unit": "µM"}, {"measurement": "Kd", "setting": "[6]", "result": "34.6 ± 8", "unit": "µM"}]}
{"molecule": "MST specific 78 bp (TACTA) (dsDNA) DNA 1: CGGCGCAAATTCGTGACCAGTTGCATCAGCTACTAGAGCTGTTTATCGCAGCATCGTAACAGGATAGTGAAGAAGACT DNA 2: AGTCTTCTTCACTATCCTGTTACGATGCTGCGATAAACAGCTCTAGTAGCTGATGCAACTGGTCACGAATTTGCGCCG", "values": [{"measurement": "Kd", "setting": "[7]", "result": "~100", "unit": "µM"}]}
